Reference: publication doi:10.1101/2022.08.03.502719
pKd: −log10 of the molar value.

What was measured:
[1] = target: WN peptide HLA-E single chain trimer (soluble) (human); experiment: SPR
[2] = target: VL9 peptide HLA-E single chain trimer (soluble) (human); experiment: SPR

| pKd [1] | pKd [2] | Substance |
| --- | --- | --- |
| 4.76 | 4.67 | CD94/NKG2C single-chain fusion protein (NKG2C ectodomain-GGSGGS-CD94 ectodomain), soluble, for SPR (from UniProt P26717 94-231; Q13241 32-179) (receptor) |
| 4.38 | 5.09 | CD94/NKG2A single-chain fusion protein (NKG2A ectodomain-GGSGGS-CD94 ectodomain), soluble, for SPR (from UniProt P26715 94-233; Q13241 32-179) (receptor) |
